Source: article PMC12280157

What was measured:
[1] = target: APLNR(K235)-cpGFP expressed in zebrafish embryos (human) (UniProt P35414)
[2] = target: APLNR(K235)-cpGFP expressed in zebrafish embryos (human) (UniProt P35414); remark: listed apart in the source
[3] = target: APLNR(K235)-cpGFP expressed in zebrafish embryos (human) (UniProt P35414); remark: listed apart in the source
[4] = target: APLNR(K235)-cpGFP (human) (UniProt P35414)
[5] = target: APLNR(F233)-cpGFP (human) (UniProt P35414)

**Q.** DKHGTKHDFLNLRRKYRRHNCPKKRCLPLHSRVPFP (ligand) [zebrafish Apela] was tested. Which cpGFP fluorescence intensity of the biosensor in zebrafish embryos at 6 hpf, after heat shock-induced ubiquitous apela overexpression, against wildtype siblings [1] did it give?
**A.** 27 % increase

B1: zebrafish Apelin (ligand)
chain: GPMASTEHSKEIEEVGSMRTPLRQNPARAGRSQRPAGWRRRRPRPRLSHKGPMPF
**Q.** Which results are given for B1?
**A.** cpGFP fluorescence intensity of the biosensor in zebrafish embryos at 6 hpf, after heat shock-induced ubiquitous apln overexpression, against wildtype siblings [1]: 27 % increase; cpGFP fluorescence intensity of the biosensor in intersegmental vessels of zebrafish embryos at 28 hpf, after heat shock-induced apln overexpression, against control siblings [2]: 250 % increase; cpGFP fluorescence intensity of single cells at 1 to 5 cell distances from an apln-expressing cell, zebrafish embryos at 6 hpf; reduction against distance 1 [3]: 23 % reduction

**Q.** With QRRCMPLHSRVPFP [Apela(19-32)] as the binder, how does the EC50 of the increase of cpGFP fluorescence (conformational change of the biosensor), stable HEK293T cells, 37 °C [4] read?
**A.** 8 nM

**Q.** And the EC50 of the increase of cpGFP fluorescence (conformational change of the biosensor), stable HEK293T cells, 37 °C [5]?
**A.** 7 nM
